Experimental data as given in paper PMC10329691, “The structural pathology for hypophosphatasia caused by malfunctional tissue non-specific alkaline phosphatase” (Nature Communications, 2023).
Residue numbers refer to the chain shown, from its start. In names and notes the source's numbering stands.

Assays:
[1] = molecular target: T1, human tissue non-specific alkaline phosphatase, amino acids 18-500 (hTNAP^18–500) (human, UniProt P05186, N-glycosylation (asparagine residues, seen in the crystal structure)); test: cryo-EM structure; hTNAP 18-500-scFv complex, 300 kV Titan Krios, C2 symmetry, 2.96 Å; conditions: both partners purified
T1 construct: human tissue non-specific alkaline phosphatase (ALPL gene), amino acids 18-500, the mature form with the GPI-anchor amidated residue Ser 501 removed; HA signal peptide at the N-terminus for secretion; TEV protease site before the Flag and His tags, no cleavage described; Dimer dominates in solution, with higher oligomers; octamer in the crystals; The same range was also made in Expi293F from …

[2] = molecular target: the molecule itself; test: SEC; Superdex 200 Increase 10/300 GL, 20 mM HEPES pH 7.5, 150 mM NaCl; purified TNAP alone
[3] = molecular target: the molecule itself; test: SEC-MALS; static light scattering, WTC-030S5 column, 150 mM NaCl, 20 mM HEPES pH 7.5, 0.5 mL/min
[4] = molecular target: the molecule itself; test: crystal structure; crystals of hTNAP 18-500 grown at acidic pH (PEG3350, sodium acetate pH 5.0; about 2.9 Å) and at basic pH (PEG4000, Tris pH 8.0, MgCl2; about 3.2 Å)

B1: scFv of the TNAP agonist antibody JTALP001 (scFv, V domains shown)
VH: QVQLVQSGAEVKKPGASVKVSCKASGYTFTSYGISWVRQAPGQGLEWMGWISAYNGNTNYAQKLQGRVTMTTDTSTSTAYMELRSLRSDDTAVYYCARDKGWNSEGSLEYWGQGTLVTVSS
VL: DIVMTQSPSSVSASVGDRVTITCRASQGISNWLGWYQQKPGKAPKLLIYGASSLQSGVPSRFSGSGSGTDFTLTISSLQPEDFATYFCQQAYSLPLTFGGGTKLEIK
notes: scFv selected from a human scFv phage library against hTNAP 18-500; The Fc fragment of JTALP001 was replaced by a His-tag; also called scFv fragment; scFv antibody; source: Expi293F, purified (Nickel-chelating resin)
[1]
  stoichiometry N: 1 scFv per TNAP protomer

B2: TNAP^T167M (active site mutant of hTNAP 18-500) (enzyme, human, UniProt P05186 18-500, looked up)
chain: LVPEKEKDPKYWRDQAQETLKYALELQKLNTNVAKNVIMFLGDGMGVSTVTAARILKGQLHHNPGEETRLEMDKFPFVALSKTYNTNAQVPDSAGTATAYLCGVKANEGTVGVSAATERSRCNTTQGNEVTSILRWAKDAGKSVGIVTTMRVNHATPSAAYAHSADRDWYSDNEMPPEALSQGCKDIAYQLMHNIRDIDVIMGGGRKYMYPKNKTDVEYESDEKARGTRLDGLDLVDTWKSFKPRYKHSHFIWNRTELLTLDPHNVDYLLGLFEPGDMQYELNRNNVTDPSLSEMVVVAIQILRKNPKGFFLLVEGGRIDHGHHEGKAKQALHEAVEMDRAIGQAGSLTSSEDTLTVVTADHSHVFTFGGYTPRGNSIFGLAPMLSDTDKKPFTAILYGNGPGYKVVGGERENVSMVDYAHNNYQAQSAVPLRHETHGGEDVAVFSKGPMAHLLHGVHEQNYVPHVMAYAACIGANLGHCAPA
notes: human tissue non-specific alkaline phosphatase, amino acids 18-500, with the hypophosphatasia mutation T167M; HA signal peptide at the N-terminus; PreScission site before the tags; also called active site mutant TNAP^T167M; source: Expi293F, transfected, purified from the supernatant (Nickel-chelating resin, SEC)
[2]
  stoichiometry N: 2

B3: human tissue non-specific alkaline phosphatase, amino acids 18-500 (hTNAP^18–500) (enzyme, UniProt P05186 18-500, looked up)
chain: B2 chain with M150T
modifications: N-glycosylation (asparagine residues, seen in the crystal structure)
notes: human tissue non-specific alkaline phosphatase (ALPL gene), amino acids 18-500, the mature form with the GPI-anchor amidated residue Ser 501 removed; HA signal peptide at the N-terminus for secretion; TEV protease site before the Flag and His tags, no cleavage described; Dimer dominates in solution, with higher oligomers; octamer in the crystals; The same range was also made in Expi293F from …
[3]
  stoichiometry N: 2
[4]
  stoichiometry N: 8

B4: TNAP^R450C (dimeric interface mutant of hTNAP 18-500) (enzyme, human, UniProt P05186 18-500, looked up)
chain: B2 chain with M150T, R433C
notes: human tissue non-specific alkaline phosphatase, amino acids 18-500, with the hypophosphatasia mutation R450C; HA signal peptide at the N-terminus; PreScission site before the tags; also called dimeric interface mutant TNAP^R450C; source: Expi293F, transfected, purified from the supernatant (Nickel-chelating resin, SEC)
[2]
  stoichiometry N: 2
